# Results taken from PMC4771712, “Deciphering Mode of Action of Functionally Important Regions in the Intrinsically Disordered Paxillin (Residues 1-313) Using Its Interaction with FAT (Focal Adhesion Targeting Domain of Focal Adhesion Kinase)” (PLoS ONE, 2016).
# T1: GST fusion of the FAT (focal adhesion targeting) domain of focal adhesion kinase, human FAK 892-1052 (human, UniProt Q05397 892-1052)
# T1 construct: focal adhesion kinase (FAK), human, FAT domain, residues 892-1052; Cloned into pGEX4T1; For the pull-down provided by Dr. M. K. Hoellerer; for bio-layer interferometry the same construct was synthesised (GeneArt) and made by the same procedure; also called GST-FAT; GST labeled FAT; source: E. coli BL21 (DE3), purified using GST-4B beads
# T1 sequence (looked up): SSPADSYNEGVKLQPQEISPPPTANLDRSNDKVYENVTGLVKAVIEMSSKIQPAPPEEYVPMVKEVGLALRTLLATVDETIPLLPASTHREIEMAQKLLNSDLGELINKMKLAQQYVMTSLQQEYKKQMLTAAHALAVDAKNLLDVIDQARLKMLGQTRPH
# Key:
# [1] = target: T1, GST fusion of the FAT (focal adhesion …); assay: BLI; GST-FAT immobilised on Anti-GST biosensors (20 μg/ml in PBS), paxillin constructs as analytes in PBS with Tween 20 (0.05%) and BSA (1%), Octet RED96, global fitting (B2 1:1 model, C35_1 to C35_3 2:1 model); settings: both partners purified
# [2] = target: T1, GST fusion of the FAT (focal adhesion …); assay: as above; settings: both partners purified; remark: listed apart in the source
Binder,stoichiometry N [1] [construct per FAT],Kd [2] [µM],koff [2] [s⁻¹],kon [2] [M⁻¹ s⁻¹]
"paxillin construct B2, expressed in E. coli for bio-layer interferometry (domain or fragment) SSEALNGTILDPLDQWQPSSSRFIHQQPQSSSPVYGSSAKTSSVSNPQDSVGSPCSRVGEEEHVYSFPNKQKSAEPSPTVMSTSLGSNLSELDRLLLELNAVQHNPPGFPADEANSSPPLPGALSPLYGVPETNSPLGGKAGPLTKEKPKRNGGRGLEDVRPSVESLLDELESSVPSPVPAITVNQGEMSSPQRVTSTQQQTRISASSATRELDELMASLSDFKFM",1,0.0361,0.00171,47500
"paxillin Construct C35_1 (54-189) (domain or fragment, human, UniProt P49023-2 54-189, looked up, human paxillin residues 54-189; Cloned into pET28a; source: E. coli BL21DE3, purified) SSEALNGTILDPLDQWQPSSSRFIHQQPQSSSPVYGSSAKTSSVSNPQDSVGSPCSRVGEEEHVYSFPNKQKSAEPSPTVMSTSLGSNLSELDRLLLELNAVQHNPPGFPADEANSSPPLPGALSPLYGVPETNSP",2,5.39,0.121,22500
"paxillin Construct C35_2 (79-189) (domain or fragment, human, UniProt P49023-2 79-189, looked up, human paxillin residues 79-189; Cloned into pET28a; source: E. coli BL21DE3, purified) QQPQSSSPVYGSSAKTSSVSNPQDSVGSPCSRVGEEEHVYSFPNKQKSAEPSPTVMSTSLGSNLSELDRLLLELNAVQHNPPGFPADEANSSPPLPGALSPLYGVPETNSP",2,16.9,0.164,9710
"paxillin Construct C35_3 (105-189) (domain or fragment, human, UniProt P49023-2 105-189, looked up, human paxillin residues 105-189; Cloned into pET28a; source: E. coli BL21DE3, purified) GSPCSRVGEEEHVYSFPNKQKSAEPSPTVMSTSLGSNLSELDRLLLELNAVQHNPPGFPADEANSSPPLPGALSPLYGVPETNSP",2,1.45,0.106,72900
